In the RNAGym collection of RNA variant scans (doi:10.7554/elife.90254):

B1: OR4K15 (parent)
chain: GUUAACGGUCAUAGGCCAUGGAAACUAGGAGCACCAUUUCGCUGCCAGUGAAGAAAUGAACAAAGAAAAUCUGGGCCAGGCAGGCAUCAAAAGAAAUAGUCUUGCGCUCAACCAGAAAGUCUGUAAUCAUUUUAAGGGUA

Variants of: B1
Test: self-cleavage, relative activity (ratio to wild type); higher = more cleavage; in vitro, sequencing; the parent is a self-cleaving ribozyme
A36G A68G gave a self-cleavage of 2.06. G21U G65A showed a self-cleavage of 1.96. In the case of A22U A69C, the self-cleavage is reported as 0.47. A27G A67G showed a self-cleavage of 1.25. A23G U37C gave a self-cleavage of 1.03. G123A A126G showed a self-cleavage of 1.34. With U3A A96G the self-cleavage was 1.18. U38C A67U gave a self-cleavage of 2.33. Work on U2A U102C yielded a self-cleavage of 1.15. G104A A140G showed a self-cleavage of 0.09. In the case of A23G U43C, the self-cleavage is reported as 1.38. Variant A68U A69G has a self-cleavage of 0.98. In the case of C32A A56G, the self-cleavage is reported as 0.28. A23G A96U gave a self-cleavage of 1.17. G84U A114G gave a self-cleavage of 0.45. Variant U3C A47U has a self-cleavage of 0.68. C121U U127C showed a self-cleavage of 1.46. In the case of G79A, the self-cleavage is reported as 0.14. With C6U G20U the self-cleavage was 1.06. For U26C U108C, the self-cleavage was 0.01. Variant C6U U38C has a self-cleavage of 1.48. U49A G79A showed a self-cleavage of 0.12. With U38A A64G the self-cleavage was 1.37. Work on A24C U122C yielded a self-cleavage of 1.49. Variant A47G A51G has a self-cleavage of 0.9. With A27G U130C the self-cleavage was 0.63. In the case of A62C A111G, the self-cleavage is reported as 0.03. For C34A, the self-cleavage was 1.12. Variant C35A A116G has a self-cleavage of 0.83. In the case of A66G A78G, the self-cleavage is reported as 0.31. Work on U26A U102C yielded a self-cleavage of 1.69. With A126U A135G the self-cleavage was 1.24. Work on A27U G99A yielded a self-cleavage of 0.6. U19C A27G gave a self-cleavage of 0.89. For A30G A91U, the self-cleavage was 1.67. Variant A33G A60G has a self-cleavage of 0.98. A68G A89C gave a self-cleavage of 1.1. U87C A118G showed a self-cleavage of 0.75. With A11G A68C the self-cleavage was 0.39. A59U A135G showed a self-cleavage of 1.33. U38C U131C gave a self-cleavage of 1.33. A96C gave a self-cleavage of 0.82. With C17U U38C the self-cleavage was 1.28. In the case of G41A A125G, the self-cleavage is reported as 0.77. With U2C U39C the self-cleavage was 0.7. In the case of U12G, the self-cleavage is reported as 1.33. Variant A82G U108C has a self-cleavage of 0.02. For U26C A54G, the self-cleavage was 1.61. Work on C17U U87A yielded a self-cleavage of 1.37. G99U U103C gave a self-cleavage of 0.15. Variant U39A A134U has a self-cleavage of 2.44. Variant C16A A60G has a self-cleavage of 0.51. U2C A30U showed a self-cleavage of 0.98. For A78C U130C, the self-cleavage was 0.21. In the case of C85U A91G, the self-cleavage is reported as 0.52. Work on U26C A30U yielded a self-cleavage of 1.14. U2A A56G showed a self-cleavage of 0.89. Work on U72A U87A yielded a self-cleavage of 0.37. Variant A5G A78G has a self-cleavage of 0.43. U72C G138A showed a self-cleavage of 0.49. A4G U87C gave a self-cleavage of 1.14. For A18G A126G, the self-cleavage was 0.8. Work on U39A A55G yielded a self-cleavage of 1.53. A18U G104A showed a self-cleavage of 0.05. For U87A U133G, the self-cleavage was 1.25. G8A U102C showed a self-cleavage of 2.44. For U57A G106A, the self-cleavage was 0.01. Work on G115A U120C yielded a self-cleavage of 0.03. Work on A62G C77U yielded a self-cleavage of 2.24. Variant G48A G73A has a self-cleavage of 0.22. Variant A78G A98G has a self-cleavage of 0.08. A67G U139C gave a self-cleavage of 1.64. Variant U70C G104A has a self-cleavage of 0.03. In the case of A47G U127A, the self-cleavage is reported as 1.33. Variant A67G A111U has a self-cleavage of 0.12. For A94U U124C, the self-cleavage was 1.66. For U26C A89G, the self-cleavage was 1.35. Variant A90G U102C has a self-cleavage of 1.97. Variant A22U A56G has a self-cleavage of 1.16. In the case of A64C A68G, the self-cleavage is reported as 1.44. Variant A4G C10U has a self-cleavage of 0.76. A23U U124C showed a self-cleavage of 1.64. A78C G106A showed a self-cleavage of 0.03. U70A U127C showed a self-cleavage of 0.34. In the case of A24G U133C, the self-cleavage is reported as 1.14. A69G A92U gave a self-cleavage of 1.3. Variant A11G C121A has a self-cleavage of 1.62. Work on C25U A67G yielded a self-cleavage of 1.55. Work on A82C A114U yielded a self-cleavage of 0.02. In the case of U38A A114G, the self-cleavage is reported as 0.96. For U43C A111G, the self-cleavage was 0.02. Work on A86G A114G yielded a self-cleavage of 0.48. For U26C U103A, the self-cleavage was 0.24. Variant U2A A89G has a self-cleavage of 1.07. U103C A134G gave a self-cleavage of 1.49. For A5U A30U, the self-cleavage was 1.11. A5G A110G showed a self-cleavage of 0.15. For A11U A63G, the self-cleavage was 0.86. Variant A52U A95G has a self-cleavage of 1.48. Work on U43A A89U yielded a self-cleavage of 1.74. A91U U100A showed a self-cleavage of 0.57. Variant A52C A64G has a self-cleavage of 1.38. A30G A82U gave a self-cleavage of 0.25. Variant G14U A94G has a self-cleavage of 1.84. For U38C U72A, the self-cleavage was 0.11. With A52G A60C the self-cleavage was 0.73. With A47G A94G the self-cleavage was 0.82. U3C A22U gave a self-cleavage of 1.12. For C107G, the self-cleavage was 0.02. Variant A111U U139A has a self-cleavage of 0.16. A116U U131C showed a self-cleavage of 0.11. With A13G U100C the self-cleavage was 1.34. For U108C A118U, the self-cleavage was 0. A23U A27G gave a self-cleavage of 1.16. With A5C A56G the self-cleavage was 1.05. Variant A5G U139A has a self-cleavage of 1.6. For A24G A126G, the self-cleavage was 0.83. Work on A59U C61U yielded a self-cleavage of 1.53. With A86C U102C the self-cleavage was 1.29. Work on A116G A134C yielded a self-cleavage of 0.7. A11G A86G showed a self-cleavage of 0.76. In the case of U9C U37A, the self-cleavage is reported as 2.35. A11U U39C gave a self-cleavage of 1.11. A11U U39A gave a self-cleavage of 1.34. For A60U G106A, the self-cleavage was 0. For A98G A110G, the self-cleavage was 0.06. With A30U A86G the self-cleavage was 1.87. For C32U A78U, the self-cleavage was 0.38. In the case of G58A U102C, the self-cleavage is reported as 2.39. U9C C34U gave a self-cleavage of 1.01. For A24U A118G, the self-cleavage was 0.99. For A64U U130C, the self-cleavage was 1.12. In the case of A11U A89G, the self-cleavage is reported as 1.21. For A82U A117U, the self-cleavage was 0.23. A117G A125G gave a self-cleavage of 0.66. In the case of A66G U70C, the self-cleavage is reported as 0.75. U103C U108C showed a self-cleavage of 0.01. In the case of A78U U133A, the self-cleavage is reported as 0.72. A54U A64G gave a self-cleavage of 1.55. U3G A51G gave a self-cleavage of 1.72. Variant G1A A114U has a self-cleavage of 0.26. Variant U9A U131C has a self-cleavage of 0.4. For A82G A92C, the self-cleavage was 0.78. G21U A90G gave a self-cleavage of 1.16. In the case of U103A A110U, the self-cleavage is reported as 0.62. With A18G U108A the self-cleavage was 0.03. Variant C17U A33G has a self-cleavage of 1.07. In the case of A22G U139A, the self-cleavage is reported as 1.14. With A82U A98G the self-cleavage was 0.06. U19C A96G gave a self-cleavage of 1.8. Work on A5U A67G yielded a self-cleavage of 1.6. G28U U100C gave a self-cleavage of 2.35. Variant G28A A129G has a self-cleavage of 0.99. In the case of C35U U43A, the self-cleavage is reported as 0.61. With A52G A91G the self-cleavage was 1.01. A5U A96G showed a self-cleavage of 1.12. Variant U87A A134G has a self-cleavage of 2.21. Work on U57C U120A yielded a self-cleavage of 2.01. With U19A A91G the self-cleavage was 1.06. In the case of A63U A68G, the self-cleavage is reported as 0.87. Variant A51G G73A has a self-cleavage of 0.26. U127C A140U gave a self-cleavage of 1.33. In the case of A18U A52U, the self-cleavage is reported as 1.6. Variant C112A A140G has a self-cleavage of 0.02. With G14C A118U the self-cleavage was 0.78. With U39A A59G the self-cleavage was 1.6. In the case of A27G A63G, the self-cleavage is reported as 1.49.
